Measured values reported in US20250011363A1, “OPTIMIZED SHORTENED PEPTIDE THAT BINDS TO ACETYLCHOLINE RECEPTOR, AND USE THEREOF” (SKINMED CO., LTD., priority 2021, published 2025).

These substances were tested against acetylcholine receptor (Homo sapiens, UniProt P02708) (assay: SPR binding affinity (RU) of optimized 5mer/6mer/7mer peptides, Examples 6-7). Conditions: SPR, Resonance Units; 5mer Bottom sequence (bottom combinations); peptides tested at 10 μM.
Procedure: Based on the frequencies of occurrence of the top 7 amino acids from Table 7 in Example 5, 600 peptides comprising these amino acids (top combinations) and those comprising the 13 less frequently occurring amino acids (bottom combinations) were synthesized for each series of 5mer, 6mer-1, and 6mer-2. The binding affinity of each sequence for the acetylcholine receptor was measured using Surface Plasmon Resonance (SPR) analysis method. The peptides were tested at a concentration of 10 μM. Additionally, the average binding affinities of the top and bottom combinations in each series are depicted in FIGS. 5-7.
Representative peptides identified in Example 6, two in each library, including 5mers (73, 311) and 6mers-1 (43, 210) and 6mers-2 (136, 233), were compared with the pre-optimized 6mer, 5mer-ND, and Synake.

Chain of acetylcholine receptor (P02708 21-457): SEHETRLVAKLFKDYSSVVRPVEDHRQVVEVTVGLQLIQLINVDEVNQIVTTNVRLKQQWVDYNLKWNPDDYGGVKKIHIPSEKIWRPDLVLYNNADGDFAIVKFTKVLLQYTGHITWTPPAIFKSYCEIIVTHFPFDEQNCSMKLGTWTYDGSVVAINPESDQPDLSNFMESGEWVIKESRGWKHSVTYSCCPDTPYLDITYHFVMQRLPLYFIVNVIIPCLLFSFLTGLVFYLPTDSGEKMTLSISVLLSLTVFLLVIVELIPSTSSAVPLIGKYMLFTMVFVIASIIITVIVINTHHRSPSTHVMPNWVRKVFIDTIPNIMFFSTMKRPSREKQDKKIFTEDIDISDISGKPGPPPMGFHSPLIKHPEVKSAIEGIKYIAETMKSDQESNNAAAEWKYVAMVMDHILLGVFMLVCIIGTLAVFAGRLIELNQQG

Row | Substance | Binding affinity [Ru]
1 | 5mer-901 (KCTNR) | 30
2 | 5mer-902 (REDPK) | 23
3 | 5mer-903 (RHHKR) | 21
4 | 5mer-904 (KPDPK) | 23
5 | 5mer-905 (RPSPR) | 30
6 | 5mer-906 (RKHAK) | 31
7 | 5mer-907 (KDSVR) | 18
8 | 5mer-908 (RCHFK) | 25
9 | 5mer-909 (RINVK) | 33
10 | 5mer-910 (RPCFR) | 17
11 | 5mer-911 (REHGK) | 14
12 | 5mer-912 (KKMGR) | 16
13 | 5mer-913 (KHTFK) | 13
14 | 5mer-914 (RPTMR) | 26
15 | 5mer-915 (KMTHR) | 28
16 | 5mer-916 (RCHER) | 12
17 | 5mer-917 (KCAPR) | 11
18 | 5mer-918 (RNNVR) | 12
19 | 5mer-919 (KNNIK) | 32
20 | 5mer-920 (KPKIK) | 15
21 | 5mer-921 (KKKFK) | 21
22 | 5mer-922 (RMWKR) | 14
23 | 5mer-923 (KCWMK) | 19
24 | 5mer-924 (RNEKK) | 27

Row | Substance | Binding affinity [Ru]
25 | 5mer-925 (KDCFK) | 25
26 | 5mer-926 (RNCWK) | 22
27 | 5mer-927 (RDEDR) | 19
28 | 5mer-928 (KHMVR) | 27
29 | 5mer-929 (KYTFR) | 28
30 | 5mer-930 (RAWVR) | 20
31 | 5mer-931 (RITER) | 11
32 | 5mer-932 (RTAWK) | 27
33 | 5mer-933 (RYMKK) | 27
34 | 5mer-934 (KMMMR) | 17
35 | 5mer-935 (RETFK) | 32
36 | 5mer-936 (RNHKR) | 29
37 | 5mer-937 (KASNR) | 21
38 | 5mer-938 (RIEFK) | 18
39 | 5mer-939 (KMHAR) | 24
40 | 5mer-940 (KCMGK) | 18
41 | 5mer-941 (KNHHR) | 21
42 | 5mer-942 (RPSDR) | 11
43 | 5mer-943 (KDKGK) | 12
44 | 5mer-944 (RYEFK) | 25
45 | 5mer-945 (RYEKR) | 23
46 | 5mer-946 (KYPWR) | 32
47 | 5mer-947 (KDWIR) | 27
48 | 5mer-948 (KDSFK) | 18

Row | Substance | Binding affinity [Ru]
49 | 5mer-949 (KMKMK) | 26
50 | 5mer-950 (KDADR) | 22
51 | 5mer-951 (RYMGR) | 18
52 | 5mer-952 (KTMHK) | 12
53 | 5mer-953 (RKMAR) | 23
54 | 5mer-954 (KTEVK) | 23
55 | 5mer-955 (KNADK) | 14
56 | 5mer-956 (KPTWK) | 19
57 | 5mer-957 (RDCER) | 30
58 | 5mer-958 (RKWKR) | 11
59 | 5mer-959 (KPNMK) | 29
60 | 5mer-960 (RNPGK) | 14
61 | 5mer-961 (KIANR) | 32
62 | 5mer-962 (RIWKR) | 23
63 | 5mer-963 (RAPNK) | 24
64 | 5mer-964 (KYTDR) | 22
65 | 5mer-965 (KMEIR) | 30
66 | 5mer-966 (RPSAK) | 32
67 | 5mer-967 (KKTHK) | 26
68 | 5mer-968 (RIPHR) | 11
69 | 5mer-969 (RNTVR) | 27
70 | 5mer-970 (KYMNR) | 33
71 | 5mer-971 (KMTGK) | 12
72 | 5mer-972 (KYAKR) | 14

Row | Substance | Binding affinity [Ru]
73 | 5mer-973 (RYWAR) | 12
74 | 5mer-974 (RHMMR) | 26
75 | 5mer-975 (RFAHK) | 18
76 | 5mer-976 (RETNR) | 16
77 | 5mer-977 (KNMIR) | 16
78 | 5mer-978 (RYDHK) | 30
79 | 5mer-979 (RHHMK) | 23
80 | 5mer-980 (RKPHR) | 33
81 | 5mer-981 (KNDKK) | 33
82 | 5mer-982 (KFMHK) | 12
83 | 5mer-983 (RTTGR) | 23
84 | 5mer-984 (KNAHK) | 11
85 | 5mer-985 (RDPKR) | 17
86 | 5mer-986 (RPMDK) | 12
87 | 5mer-987 (RAHWR) | 22
88 | 5mer-988 (RCKWR) | 17
89 | 5mer-989 (RCTAR) | 31
90 | 5mer-990 (KEEPK) | 12
91 | 5mer-991 (RPEFR) | 24
92 | 5mer-992 (RNDKK) | 15
93 | 5mer-993 (KEKFR) | 27
94 | 5mer-994 (KAWVR) | 26
95 | 5mer-995 (KFTDK) | 18
96 | 5mer-996 (RMTKK) | 32

Row | Substance | Binding affinity [Ru]
97 | 5mer-997 (RYPHR) | 30
98 | 5mer-998 (RCTAK) | 18
99 | 5mer-999 (KTKFK) | 19
100 | 5mer-1000 (KHCWR) | 20
101 | 5mer-1001 (KPCGK) | 33
102 | 5mer-1002 (KEDNK) | 12
103 | 5mer-1003 (RMTVR) | 11
104 | 5mer-1004 (RDADR) | 30
105 | 5mer-1005 (RTHGR) | 30
106 | 5mer-1006 (KEPER) | 17
107 | 5mer-1007 (RDMMR) | 30
108 | 5mer-1008 (KDSNR) | 11
109 | 5mer-1009 (KMCAK) | 29
110 | 5mer-1010 (KCDNK) | 16
111 | 5mer-1011 (KTDMK) | 25
112 | 5mer-1012 (RHKVR) | 22
113 | 5mer-1013 (KCCVK) | 19
114 | 5mer-1014 (RKNKR) | 23
115 | 5mer-1015 (RCWMK) | 30
116 | 5mer-1016 (KYTMR) | 28
117 | 5mer-1017 (RCTWK) | 24
118 | 5mer-1018 (KFWAK) | 20
119 | 5mer-1019 (RFKFK) | 28
120 | 5mer-1020 (KCKVK) | 12

Row | Substance | Binding affinity [Ru]
121 | 5mer-1021 (KITHK) | 26
122 | 5mer-1022 (KIADK) | 29
123 | 5mer-1023 (RYCKK) | 13
124 | 5mer-1024 (KIDNK) | 26
125 | 5mer-1025 (RHKWK) | 25
126 | 5mer-1026 (RNAVR) | 20
127 | 5mer-1027 (KNTNR) | 28
128 | 5mer-1028 (RMAMR) | 28
129 | 5mer-1029 (KADIK) | 25
130 | 5mer-1030 (RISDK) | 18
131 | 5mer-1031 (RKEER) | 13
132 | 5mer-1032 (RHHMR) | 23
133 | 5mer-1033 (REWDK) | 28
134 | 5mer-1034 (RFAKK) | 14
135 | 5mer-1035 (KEHVR) | 19
136 | 5mer-1036 (KTHMK) | 23
137 | 5mer-1037 (KKSFR) | 28
138 | 5mer-1038 (KCCKR) | 17
139 | 5mer-1039 (KKDVK) | 32
140 | 5mer-1040 (KTPWR) | 17
141 | 5mer-1041 (RDWFK) | 27

Same assay, conditions: SPR; peptides tested at 10 μM; 5mer Bottom sequence

Row | Substance | Binding affinity [Ru]
142 | 5mer-876 (KETAR) | 16
143 | 5mer-877 (RFSMR) | 17
144 | 5mer-878 (KHTER) | 24
145 | 5mer-879 (KDCMK) | 13
146 | 5mer-880 (RCDKK) | 17
147 | 5mer-881 (RNDAK) | 31
148 | 5mer-882 (REEGR) | 18
149 | 5mer-883 (KMSAK) | 16
150 | 5mer-884 (KIWEK) | 28
151 | 5mer-885 (RHCNR) | 19
152 | 5mer-886 (RMMFR) | 21
153 | 5mer-887 (KTPVR) | 30
154 | 5mer-888 (KKCIR) | 31
155 | 5mer-889 (KTPGR) | 25
156 | 5mer-890 (KKHFK) | 33
157 | 5mer-891 (RKKMK) | 24
158 | 5mer-892 (RKPMR) | 29
159 | 5mer-893 (RIKIK) | 18
160 | 5mer-894 (KMSPR) | 18
161 | 5mer-895 (RFTKK) | 18
162 | 5mer-896 (RYHWR) | 27
163 | 5mer-897 (KFCER) | 30
164 | 5mer-898 (RYCMR) | 20
165 | 5mer-899 (RYTFR) | 31
166 | 5mer-900 (RHSVK) | 29
